According to publication doi:10.1101/2025.02.27.640495:

Target: Cro-6His (Cro-like repressor of phage phi10403S) (Listeria monocytogenes 10403S prophage …, UniProt A0A0H3GJS2 1-67)
Assay: EMSA

B1: Cro operator probe, native (dsDNA)
DNA 1: TTATAGAGAAACAAAACGTTTCTTTTGG
DNA 2: CCAAAAGAAACGTTTTGTTTCTCTATAA
Kd: 0.321 µM
